Measurements reported in publication PMC11497598.

How the values were obtained:
Experiment in all cases: analytical SEC
Details in all cases: cell culture supernatant of Expi293F cells; parent: est. 72; read off a plot
[1] = target: B/Iowa/06/2017 HA HA1 213A
[2] = target: B/Iowa/06/2017 HA HA1 220F
[3] = target: B/Iowa/06/2017 HA HA1 220N
[4] = target: B/Iowa/06/2017 HA HA1 220Q
[5] = target: B/Iowa/06/2017 HA HA1 220T
[6] = target: B/Iowa/06/2017 HA HA1 259V
[7] = target: B/Iowa/06/2017 HA HA1 314M
[8] = target: B/Iowa/06/2017 HA HA1 H311M
[9] = target: B/Iowa/06/2017 HA HA1 K209F
[10] = target: B/Iowa/06/2017 HA HA1 K209I
[11] = target: B/Iowa/06/2017 HA HA1 K209L
[12] = target: B/Iowa/06/2017 HA HA1 K209Q
[13] = target: B/Iowa/06/2017 HA HA1 K209R
[14] = target: B/Iowa/06/2017 HA HA1 K209T
[15] = target: B/Iowa/06/2017 HA HA1 K209Y
[16] = target: B/Iowa/06/2017 HA HA1 T211V
[17] = target: B/Iowa/06/2017 HA HA1 T218N
[18] = target: B/Iowa/06/2017 HA HA1 T218V
[19] = target: B/Iowa/06/2017 HA HA1 V217K
[20] = target: B/Iowa/06/2017 HA HA1 V217W
[21] = target: B/Iowa/06/2017 HA HA2 11P
[22] = target: B/Iowa/06/2017 HA HA2 15P
[23] = target: B/Iowa/06/2017 HA HA2 18P
[24] = target: B/Iowa/06/2017 HA HA2 29P
[25] = target: B/Iowa/06/2017 HA HA2 30W
[26] = target: B/Iowa/06/2017 HA HA2 67T
[27] = target: B/Iowa/06/2017 HA HA2 91I
[28] = target: B/Iowa/06/2017 HA HA2 93A
[29] = target: B/Iowa/06/2017 HA HA2 111Q
[30] = target: B/Iowa/06/2017 HA HA2 116R
[31] = target: B/Iowa/06/2017 HA HA2 116W
[32] = target: B/Iowa/06/2017 HA HA2 D71P
[33] = target: B/Iowa/06/2017 HA HA2 E113F
[34] = target: B/Iowa/06/2017 HA HA2 E113L
[35] = target: B/Iowa/06/2017 HA HA2 E113Q
[36] = target: B/Iowa/06/2017 HA HA2 E113W
[37] = target: B/Iowa/06/2017 HA HA2 G68L
[38] = target: B/Iowa/06/2017 HA HA2 G68Y
[39] = target: B/Iowa/06/2017 HA HA2 H22Y
[40] = target: B/Iowa/06/2017 HA HA2 H114I
[41] = target: B/Iowa/06/2017 HA HA2 H114Q
[42] = target: B/Iowa/06/2017 HA HA2 H114W
[43] = target: B/Iowa/06/2017 HA HA2 H114Y
[44] = target: B/Iowa/06/2017 HA HA2 Q64F
[45] = target: B/Iowa/06/2017 HA HA2 Q64P
[46] = target: B/Iowa/06/2017 HA HA2 Q64W
[47] = target: B/Iowa/06/2017 HA HA2 Q64Y
[48] = target: B/Iowa/06/2017 HA HA2 S40A
[49] = target: B/Iowa/06/2017 HA HA2 S110R
[50] = target: B/Iowa/06/2017 HA HA2 S110W

wild-type soluble hemagglutinin (HA) of influenza B/Iowa/06/2017 HA1:213A
other: trimer fraction [1]: 82%

wild-type soluble hemagglutinin (HA) of influenza B/Iowa/06/2017 HA1:220F
other: trimer fraction [2]: 85%

wild-type soluble hemagglutinin (HA) of influenza B/Iowa/06/2017 HA1:220N
other: trimer fraction [3]: 71%

wild-type soluble hemagglutinin (HA) of influenza B/Iowa/06/2017 HA1:220Q
other: trimer fraction [4]: 62%

wild-type soluble hemagglutinin (HA) of influenza B/Iowa/06/2017 HA1:220T
other: trimer fraction [5]: 79%

wild-type soluble hemagglutinin (HA) of influenza B/Iowa/06/2017 HA1:259V
other: trimer fraction [6]: 92%

wild-type soluble hemagglutinin (HA) of influenza B/Iowa/06/2017 HA1:314M
other: trimer fraction [7]: 49%

wild-type soluble hemagglutinin (HA) of influenza B/Iowa/06/2017 HA1:H311M
other: trimer fraction [8]: 68%

wild-type soluble hemagglutinin (HA) of influenza B/Iowa/06/2017 HA1:K209F
other: trimer fraction [9]: 96%

wild-type soluble hemagglutinin (HA) of influenza B/Iowa/06/2017 HA1:K209I
other: trimer fraction [10]: 93%

wild-type soluble hemagglutinin (HA) of influenza B/Iowa/06/2017 HA1:K209L
other: trimer fraction [11]: 96%

wild-type soluble hemagglutinin (HA) of influenza B/Iowa/06/2017 HA1:K209Q
other: trimer fraction [12]: 98%

wild-type soluble hemagglutinin (HA) of influenza B/Iowa/06/2017 HA1:K209R
other: trimer fraction [13]: 79%

wild-type soluble hemagglutinin (HA) of influenza B/Iowa/06/2017 HA1:K209T
other: trimer fraction [14]: 98%

wild-type soluble hemagglutinin (HA) of influenza B/Iowa/06/2017 HA1:K209Y
other: trimer fraction [15]: 92%

wild-type soluble hemagglutinin (HA) of influenza B/Iowa/06/2017 HA1:T211V
other: trimer fraction [16]: 78%

wild-type soluble hemagglutinin (HA) of influenza B/Iowa/06/2017 HA1:T218N
other: trimer fraction [17]: 89%

wild-type soluble hemagglutinin (HA) of influenza B/Iowa/06/2017 HA1:T218V
other: trimer fraction [18]: 69%

wild-type soluble hemagglutinin (HA) of influenza B/Iowa/06/2017 HA1:V217K
other: trimer fraction [19]: 91%

wild-type soluble hemagglutinin (HA) of influenza B/Iowa/06/2017 HA1:V217W
other: trimer fraction [20]: 96%

wild-type soluble hemagglutinin (HA) of influenza B/Iowa/06/2017 HA2:11P
other: trimer fraction [21]: 76%

wild-type soluble hemagglutinin (HA) of influenza B/Iowa/06/2017 HA2:15P
other: trimer fraction [22]: 69%

wild-type soluble hemagglutinin (HA) of influenza B/Iowa/06/2017 HA2:18P
other: trimer fraction [23]: 57%

wild-type soluble hemagglutinin (HA) of influenza B/Iowa/06/2017 HA2:29P
other: trimer fraction [24]: 77%

wild-type soluble hemagglutinin (HA) of influenza B/Iowa/06/2017 HA2:30W
other: trimer fraction [25]: 69%

wild-type soluble hemagglutinin (HA) of influenza B/Iowa/06/2017 HA2:67T
other: trimer fraction [26]: 77%

wild-type soluble hemagglutinin (HA) of influenza B/Iowa/06/2017 HA2:91I
other: trimer fraction [27]: 56%

wild-type soluble hemagglutinin (HA) of influenza B/Iowa/06/2017 HA2:93A
other: trimer fraction [28]: 87%

wild-type soluble hemagglutinin (HA) of influenza B/Iowa/06/2017 HA2:111Q
other: trimer fraction [29]: 84%

wild-type soluble hemagglutinin (HA) of influenza B/Iowa/06/2017 HA2:116R
other: trimer fraction [30]: 86%

wild-type soluble hemagglutinin (HA) of influenza B/Iowa/06/2017 HA2:116W
other: trimer fraction [31]: 90%

wild-type soluble hemagglutinin (HA) of influenza B/Iowa/06/2017 HA2:D71P
other: trimer fraction [32]: 88%

wild-type soluble hemagglutinin (HA) of influenza B/Iowa/06/2017 HA2:E113F
other: trimer fraction [33]: 98%

wild-type soluble hemagglutinin (HA) of influenza B/Iowa/06/2017 HA2:E113L
other: trimer fraction [34]: 97%

wild-type soluble hemagglutinin (HA) of influenza B/Iowa/06/2017 HA2:E113Q
other: trimer fraction [35]: 97%

wild-type soluble hemagglutinin (HA) of influenza B/Iowa/06/2017 HA2:E113W
other: trimer fraction [36]: 100%

wild-type soluble hemagglutinin (HA) of influenza B/Iowa/06/2017 HA2:G68L
other: trimer fraction [37]: 97%

wild-type soluble hemagglutinin (HA) of influenza B/Iowa/06/2017 HA2:G68Y
other: trimer fraction [38]: 96%

wild-type soluble hemagglutinin (HA) of influenza B/Iowa/06/2017 HA2:H22Y
other: trimer fraction [39]: 85%

wild-type soluble hemagglutinin (HA) of influenza B/Iowa/06/2017 HA2:H114I
other: trimer fraction [40]: 55%

wild-type soluble hemagglutinin (HA) of influenza B/Iowa/06/2017 HA2:H114Q
other: trimer fraction [41]: 65%

wild-type soluble hemagglutinin (HA) of influenza B/Iowa/06/2017 HA2:H114W
other: trimer fraction [42]: 43%

wild-type soluble hemagglutinin (HA) of influenza B/Iowa/06/2017 HA2:H114Y
other: trimer fraction [43]: 65%

wild-type soluble hemagglutinin (HA) of influenza B/Iowa/06/2017 HA2:Q64F
other: trimer fraction [44]: 96%

wild-type soluble hemagglutinin (HA) of influenza B/Iowa/06/2017 HA2:Q64P
other: trimer fraction [45]: 65%

wild-type soluble hemagglutinin (HA) of influenza B/Iowa/06/2017 HA2:Q64W
other: trimer fraction [46]: 93%

wild-type soluble hemagglutinin (HA) of influenza B/Iowa/06/2017 HA2:Q64Y
other: trimer fraction [47]: 98%

wild-type soluble hemagglutinin (HA) of influenza B/Iowa/06/2017 HA2:S40A
other: trimer fraction [48]: 52%

wild-type soluble hemagglutinin (HA) of influenza B/Iowa/06/2017 HA2:S110R
other: trimer fraction [49]: 86%

wild-type soluble hemagglutinin (HA) of influenza B/Iowa/06/2017 HA2:S110W
other: trimer fraction [50]: 51%
